Experimental data taken from the nanobody polyreactivity screen of Harvey et al. (2022).

Experiment: yeast display, Sf9 membrane polyspecificity reagent, FACS + sequencing; frameworks hold sequencing errors
Procedure, shortened: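 Galactose-induced (36–48 hours) yeast carrying a synthetic nanobody display library were exposed to 10% biotinylated, detergent-solubilized Sf9 membrane reagent at 4 °C for 1 hour. FACS followed streptavidin microbead enrichment, using low and high (top ~1%) gates for expression (anti-HA) and reagent binding (streptavidin). Colony PCR, MiSeq 2 × 250 sequencing and CDR-length filtering followed. Labels for polyreactivity reflect the gate of origin.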

Row | Sequence | polyreactivity (PSR sort gate)
1 | QVQLVESGGGLVQAGGSLRLSCAASGLTFPWYAMGWYRQAPGKERELVAGISWSGGSTYYADSVKGRFTISRDNAKNTVYLQMNSLKPEDTAVYYCAARVWYYDYWGQGTQVTVSS | high polyreactivity
2 | QVQLVESGGGLVQAGGSLRLSCAASGLTFPYYAMGWYRQAPGKERELVAGISDSGDSTYYADSVKGRFTISRDNAKNTVYLQMNSLKPEDTAVYYCNAYFRYSYDYWGQGTQVTVSS | high polyreactivity
3 | QVQLVESGGGLVQAGGSLRLSCAASGLTFQGYAMGWYRQAPGKERELVAAISGSGGSTYYADSVKGRFTISRDNAKNTVYLQMNSLKPEDTAVYYCAADDSYYGIDYGYWGQGTQVTVSS | low polyreactivity
4 | QVQLVESGGGLVQAGGSLRLSCAASGLTFRANAMGWYRQAPGKERELVAAISWRGGGTYYADSVKGRFTISRDNAKNTVYLQMNSLKPEDTAVYYCDAKTQNAYYWGQGTQVTVSS | low polyreactivity
5 | QVQLVESGGGLVQAGGSLRLSCAASGLTFRAYAMGWYRLAPGKERELVAAITWSGTRTYYADSVKGRFTISRDNAKNTVYLQMNSLKPEDTAVYYCARGHTKVKYDYWGQGTQVTVSS | low polyreactivity
6 | QVQLVESGGGLVQAGGSLRLSCAASGLTFRDNAMGWYRQAPGTERELVATMNSGGSTDYADSVKGRFTISRHNAKNTVYLQMNSLKPEDTAVYYCAVYREYYDRGWYSIFYWYDYWGQGTQVTVSS | low polyreactivity
7 | QVQLVESGGGLVQAGGSLRLSCAASGLTFRGYAMGWYRQAPGKERELVAAITSSAGRTYYADSVKGRFTISRDNAKNTVYLQLNSLKQEDTAVYYCAAAHSYTTRWGYYKFNYWGQGTKVTVSS | high polyreactivity
8 | QVQLVESGGGLVQAGGSLRLSCAASGLTFRGYTMGWYRQAPGKERELVARITYSGGSTYYADSVKGRFTISRDNAKNTVYLQMNSLKPEDTAVYYCAKEIWRHWTGDYWGQGTQVTVSS | high polyreactivity
9 | QVQLVESGGGLVQAGGSLRLSCAASGLTFRPNAMGWYRQAPGKERELVAAITWRGGRTYYADSVKGRFTISRDNAKNTVYLQMNSLKPEDTAVYYCAADSPYRGRPGPLNYGGDYWGQGTQVTVSS | high polyreactivity
10 | QVQLVESGGGLVQAGGSLRLSCAASGLTFRSYAMGWYRPAPGKEREFVAAITGSGDTTYYADSVKGRFTISRDNAKNTVYLQMNSLKPEDTAVYYCNADRDYLWITLYEYWGQGTQVTVSS | high polyreactivity
11 | QVQLVESGGGLVQAGGSLRLSCAASGLTFRWYAMGWYRQAPGKERELVAAISWSGGSTYYADSVKGRFTISRDNAKNTVYLQMNSLKPEDTAVDYCAASYYADRSKAYDYWGQGTQLTVSS | high polyreactivity
12 | QVQLVESGGGLVQAGGSLRLSCAASGLTFRYNAMGWYRQAPGKERELVAAIRTSGGSTYYADSVKGRFTISRDNAKNTVYLQMNSLKPEDTAVYYCAARSKSYYGGYARGYWGQGTQVTVSS | high polyreactivity
13 | QVQLVESGGGLVQAGGSLRLSCAASGLTFRYYAMGWYREAPGKEREFVAAITSSGGSTDYADSVKGRFTISRDNAKNSVYLQMNSVKPDDTGVFYCAAATNTQESVPMYYWGQGTQVTVSS | low polyreactivity
14 | QVQLVESGGGLVQAGGSLRLSCAASGLTFRYYAMGWYRQAPGKERELVAAITRRGSTYYADSVKGRFTISRDNAKNTVYLQMNSLKPEDTAVYYCATVTGFHSSPLRDLDYWGQGTQVTVSS | high polyreactivity
15 | QVQLVESGGGLVQAGGSLRLSCAASGLTFRYYAMGWYRQAPGKERELVAAITRRGSTYYADSVQGRFTISRDNAKNTVYLQMNSLKPEDTAVYYCAADDPYTPQYPDVTYDYWGQGTQVTVSS | high polyreactivity
16 | QVQLVESGGGLVQAGGSLRLSCAASGLTFRYYAMGWYRQAPGKEREWVASITSRGTSTYYADSVKGRFTISRDNAKNTVYLQMNSLKPEDTAVYYCAKPVGTVGYDYWGQGTQVTVSS | high polyreactivity
17 | QVQLVESGGGLVQAGGSLRLSCAASGLTFRYYGMGWYRQAPGKERELVAAITSSGGSTRYADSVKGRFTISRDNAKNTVYLQMNSLKPEDTAVYYCAASTWYGYDYWGQGTQVTVSS | high polyreactivity
18 | QVQLVESGGGLVQAGGSLRLSCAASGLTFSDYAMGWYRQAPGKEREFVAAITRNGASTRYADSVKGRFTISRDNAKNTVYLQMNRLKPEDTAVYYCSTDVGFGRKQRPHRPGYGYWGQGTQVTVSS | low polyreactivity
19 | QVQLVESGGGLVQAGGSLRLSCAASGLTFSINAMGWYIQAPGKERELVAAISRSGGRTYYADSVKGRFTISRDNAKNTVYLQMNSLKPEDTAVYYCAADKTQSHYDYWGQGTQVTVSS | high polyreactivity
20 | QVQLVESGGGLVQAGGSLRLSCAASGLTFSIYAMGWYRQAPGKERELVAAISSTGSTNYADSVKGRFTISRDNAKNTVYLQMNSLKPEDTAVYYCAAELQPSPVGGIIQYGFDYWGQGTQVTVSS | low polyreactivity
21 | QVQLVESGGGLVQAGGSLRLSCAASGLTFSNYAMGWYRQAPGKEREFVAAISASGGSTYYAHSVKGRFTISRDYAKNTVYLQMNRLTPEDTAVYYCAASTTRPVYPANDDYWGQGTQVTVSS | low polyreactivity
22 | QVQLVESGGGLVQAGGSLRLSCAASGLTFSPYAMGWYRQAPGKERELVAAISYSGGSTYYADSVKGRFTISRDNAKNTVYLQMISLKPEDTAVYYCAVVVPNLLRDGRRMYYWGQGTQVTVSS | high polyreactivity

Row | Sequence | polyreactivity (PSR sort gate)
23 | QVQLVESGGGLVQAGGSLRLSCAASGLTFSRYAMGWYRQAPGKERELVAAISRRGGITYYADSVKGRFTISRDNAKNTVYLQMNSLKPEDTAVYYCNKDYGGELDYWGQGTQVSVSS | high polyreactivity
24 | QVQLVESGGGLVQAGGSLRLSCAASGLTFSTNAMGWYRQAPGKEREFVAAISFNGGSTYYADSVKGRFTISRDNAKNTVYLQMNSLKPEDTAVYYWNAVKYRYLEYNYWGQGTQVTVSS | high polyreactivity
25 | QVQLVESGGGLVQAGGSLRLSCAASGLTFSTYDMGGYRQAPGKERELVAAITSGDGSTYYADSVKGRFTISRDNAKNTVYLQMNSLKPEDTAVYYCAADYLEWYGDVLFPYDYWGQGTQVTVSS | low polyreactivity
26 | QVQLVESGGGLVQAGGSLRLSCAASGLTFSTYDMGWYRQAPGKERELVAAITSGDGSTYYADSVKGRFTISRDTAKNTVYLQMNSLKPEDTAVYYCAADYLEWYGDVLFPYDYWGQGTQVTVSS | low polyreactivity
27 | QVQLVESGGGLVQAGGSLRLSCAASGLTFSVYAMGWYRQAPGKERELVASISSGGTSTYYADSVKGRFTISRDNAKNTVYLQMNSLKPEDTAVYYCAAYSYYTGDQYSYDYWGQGTQVTVSS | low polyreactivity
28 | QVQLVESGGGLVQAGGSLRLSCAASGLTFSWNAMGWYRQAPGKERELVAAISSRGGSTYYADSVKGRFKISRDNAKNTVYLQMNSLKPEDTAVYYCNAHGRRFLGDYGYWGQGTQVTVSS | low polyreactivity
29 | QVQLVESGGGLVQAGGSLRLSCAASGLTFSYYTMGWYRQAPGKERELVAAISKSAGSTYYADSVKGRFTISRDNAKNTVYLQMNSLKPEDTAVYYCAARFGYQYSYGYNYWGQGTQVTVSS | high polyreactivity
30 | QVQLVESGGGLVQAGGSLRLSCAASGLTFTHYALGWYRQAPGKERELVAAIAWRGGSTYYADSVKGRFTISRDNAKNTVYLQMNSLKPEDTAVYYCAVARSYRGEMDYWGQGTQVTVSS | low polyreactivity
31 | QVQLVESGGGLVQAGGSLRLSCAASGLTFTNYAMGWYRQAPGKERELVAAISRSGARTYYADSVKGRFTISRDNAKNTVYLQMNSLKPEDTAVYYCATRYLSRGVYNYDYWGQGTQVTVSS | high polyreactivity
32 | QVQLVESGGGLVQAGGSLRLSCAASGLTFTPYTMGWYRQAPGKERELVAAITSSAARTYYADSVKGRFTISRDKAKNTVYFQMNSLKPEDTAVYYCNRYRLPSGRYEYWGQGTQVTVSS | high polyreactivity
33 | QVQLVESGGGLVQAGGSLRLSCAASGLTFTRYTMGWYRQAPGKERELVAAITSSGGSTYYADSVKGRFTISRDNAKNTVYLQMNSLKPEDTAVYYCAARYPGTRGDGYWGQGTQVTVSS | high polyreactivity
34 | QVQLVESGGGLVQAGGSLRLSCAASGLTFTSYAMGWYRQAPGKERELVAAITSGGSTYFADSVKGRFTISRDNAKNTVYLQMNSLKPEDTAVYYCNVTVYTRWYRSHSFWSTFRMDYWGQGTQVTVSS | low polyreactivity
35 | QVQLVESGGGLVQAGGSLRLSCAASGLTFTTYAMGWYRPAPGKERELVASIRTGGSTNYADSVKGRFTISRDNAKNTVYLQMNSLKPEETAVYYCAAGRRIDKRYEYWGQGTQFTVSS | low polyreactivity
36 | QVQLVESGGGLVQAGGSLRLSCAASGLTFVFYAMGWYRQAPGKERELVAAISSSGGSTNYADSVKGRFTISRDNAKNTVYLQMNSLKPEDTAVYYCNARGRSGGGRYDYWGQGTQVTVSS | high polyreactivity
37 | QVQLVESGGGLVQAGGSLRLSCAASGLTFVFYAMGWYRQAPGNERELVAAISWSTGRTYYADSVKGRFTISRDNAKNTVYLQMNSLKPEDTAVYYCAASYLGRKYDYWGQGTQVTVSS | high polyreactivity
38 | QVQLVESGGGLVQAGGSLRLSCAASGLTFVIYAMGWYRQAPGKERELVARITWSGGSTYYADSVKGRFTISRDNAKNTVYLQMNSLKPEETAVDYCAARRFYYYNAGYDSWGQGTQVTVSS | low polyreactivity
39 | QVQLVESGGGLVQAGGSLRLSCAASGLTFVRYTMGWYRQAPGKVRELVAAITWSGGSTYYADSVKGRFTISRDNAKNTVYLQMNSLKPQDTAVYYCAARHRYWYGVTVDYWGQGTHVTVSS | high polyreactivity
40 | QVQLVESGGGLVQAGGSLRLSCAASGLTFVRYTMGWYRQPPGKVRELVAAITRGDGTNYADSVKGRFTISRDNAKNTVYLHLNCMKPEDTAVYLCADQEHFLWNYYAFDYWGQGTQVTVSS | low polyreactivity
41 | QVQLVESGGGLVQAGGSLRLSCAASGLTFVVYAMGWYRQAPGKERELVASITSSGGRTYYADSVKGRFTISRDNAKNTVYLQMNSLKPEDTAVYYCNKYTWWLGSVDYWGQGTQVTVSS | high polyreactivity
42 | QVQLVESGGGLVQAGGSLRLSCAASGLTFVYYAMGWYRQAPGKEMELVAAITSGGTTHYADSVKGRFTISRDNAKNTVYLQMNSLKPEDTAVYYCAATLGRWKRTYGYWGQGTQVTVSS | high polyreactivity
43 | QVQLVESGGGLVQAGGSLRLSCAASGLTFWAYFMGWYRQAPGKEREFVAAITLSSGSTYYADSVKGRFTISRDNEKNTVYLQMNSLKPEYTAVYYCAATRDYGYWMYSWGQGTQGTVSS | high polyreactivity
